The text below walks through data of PMC12305717.

This assay concerns the target MlucV reporter (mTFP1 - mutated firefly luciferase - Venus), urea-pre-unfolded / misfolding (firefly).

Chain of Ydj1 (yeast class A J-domain protein) (P25491 whole entry): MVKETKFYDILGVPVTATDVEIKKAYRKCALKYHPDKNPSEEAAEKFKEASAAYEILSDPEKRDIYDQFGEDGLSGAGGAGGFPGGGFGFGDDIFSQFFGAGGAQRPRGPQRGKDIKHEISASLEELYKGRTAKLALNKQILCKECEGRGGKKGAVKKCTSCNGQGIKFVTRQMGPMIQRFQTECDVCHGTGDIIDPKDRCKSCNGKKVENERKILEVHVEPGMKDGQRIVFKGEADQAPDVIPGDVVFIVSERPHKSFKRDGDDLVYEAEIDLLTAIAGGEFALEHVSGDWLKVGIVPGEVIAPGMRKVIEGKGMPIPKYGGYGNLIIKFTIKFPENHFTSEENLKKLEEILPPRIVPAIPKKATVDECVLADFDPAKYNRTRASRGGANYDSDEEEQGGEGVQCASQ
Chain of Ssa1 (yeast cytosolic Hsp70) (P10591 whole entry): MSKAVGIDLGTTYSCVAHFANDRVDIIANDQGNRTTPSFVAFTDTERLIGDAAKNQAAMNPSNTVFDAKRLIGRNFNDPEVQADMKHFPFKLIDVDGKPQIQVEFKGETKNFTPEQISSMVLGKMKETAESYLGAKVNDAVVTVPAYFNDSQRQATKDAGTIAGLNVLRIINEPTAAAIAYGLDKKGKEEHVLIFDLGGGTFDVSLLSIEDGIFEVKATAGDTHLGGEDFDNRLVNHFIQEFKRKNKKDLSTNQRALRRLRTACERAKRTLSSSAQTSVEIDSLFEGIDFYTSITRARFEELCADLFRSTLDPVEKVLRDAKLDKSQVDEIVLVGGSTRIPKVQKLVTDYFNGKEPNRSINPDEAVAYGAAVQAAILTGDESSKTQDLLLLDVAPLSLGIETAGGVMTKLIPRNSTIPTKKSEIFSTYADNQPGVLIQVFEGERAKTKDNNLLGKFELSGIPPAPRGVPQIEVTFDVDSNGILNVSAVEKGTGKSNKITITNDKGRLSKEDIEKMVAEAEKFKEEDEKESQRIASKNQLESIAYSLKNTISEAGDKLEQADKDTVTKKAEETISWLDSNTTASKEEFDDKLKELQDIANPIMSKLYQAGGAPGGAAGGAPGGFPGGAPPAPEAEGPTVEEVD

As for “Ydj1 (yeast class A J-domain protein) (from UniProt P25491 1-409) (natural protein)”, the prevention of aggregation: normalised FRET of urea-pre-unfolded MlucV diluted into increasing Ydj1 (150% without Ydj1; native MlucV = 100%) (% of the FRET of native MlucV) worked out at 105.

“Ssa1 (yeast cytosolic Hsp70) (from UniProt P10591 1-642) (natural protein)”: the prevention of aggregation: normalised FRET of urea-pre-unfolded MlucV diluted into increasing Ssa1 (150% without chaperone) (% of the FRET of native MlucV) was 145.
